Data reported in article PMC12532918.

Biological target: T1, CXCR4-CFP / CXCR4-YFP (human), P61073
T1 chain: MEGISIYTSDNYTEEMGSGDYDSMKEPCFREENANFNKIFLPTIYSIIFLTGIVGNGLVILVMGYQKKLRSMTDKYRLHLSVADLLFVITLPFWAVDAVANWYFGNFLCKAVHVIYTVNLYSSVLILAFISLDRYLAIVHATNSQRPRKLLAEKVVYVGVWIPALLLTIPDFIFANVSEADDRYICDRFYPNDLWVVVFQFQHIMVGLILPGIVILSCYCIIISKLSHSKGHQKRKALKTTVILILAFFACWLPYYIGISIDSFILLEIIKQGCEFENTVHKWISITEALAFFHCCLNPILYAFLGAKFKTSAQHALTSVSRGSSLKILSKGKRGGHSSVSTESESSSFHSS
Test: FRET or BRET; FLIM (CFP donor lifetime) in live HEK-293T cells transfected with CXCR4-YFP/CXCR4-CFP or 5HTR2B-YFP/CXCR4-CFP (15 µg : 9 µg); CXCR4-CFP alone as reference; untreated or ChOx (25 U/mL, 2 h, 37 °C); without or with CXCL12 (100 nM, 30 min)
Settings: remark: other sources report otherwise

- CFP donor lifetime (CFPτ), ChOx-treated cells (2.03 ns for CXCR4-CFP alone): 1.82 ns
- CFP donor lifetime (CFPτ), ChOx-treated cells with CXCL12: 1.75 ns
- CFP donor lifetime (CFPτ), untreated cells (2.03 ns for CXCR4-CFP alone): 1.7 ns
- CFP donor lifetime (CFPτ), untreated cells with CXCL12: 1.61 ns
B1: CXCR4-CFP / CXCR4-YFP, P61073 1-352 (receptor)
chain: MEGISIYTSDNYTEEMGSGDYDSMKEPCFREENANFNKIFLPTIYSIIFLTGIVGNGLVILVMGYQKKLRSMTDKYRLHLSVADLLFVITLPFWAVDAVANWYFGNFLCKAVHVIYTVNLYSSVLILAFISLDRYLAIVHATNSQRPRKLLAEKVVYVGVWIPALLLTIPDFIFANVSEADDRYICDRFYPNDLWVVVFQFQHIMVGLILPGIVILSCYCIIISKLSHSKGHQKRKALKTTVILILAFFACWLPYYIGISIDSFILLEIIKQGCEFENTVHKWISITEALAFFHCCLNPILYAFLGAKFKTSAQHALTSVSRGSSLKILSKGKRGGHSSVSTESESSSFHSS
